The results in this text go back to patent US20090197330A1 (BIOMEDICS, published 2009).

Changes are numbered by the printed parent chain.

Sequences and labels used below:
T1: human CD20 antigen (human, UniProt P11836 1-297)
T1 construct: whole, on cells; also called CD20/CHO cells; CD20 on Raji cells
T1 sequence (looked up): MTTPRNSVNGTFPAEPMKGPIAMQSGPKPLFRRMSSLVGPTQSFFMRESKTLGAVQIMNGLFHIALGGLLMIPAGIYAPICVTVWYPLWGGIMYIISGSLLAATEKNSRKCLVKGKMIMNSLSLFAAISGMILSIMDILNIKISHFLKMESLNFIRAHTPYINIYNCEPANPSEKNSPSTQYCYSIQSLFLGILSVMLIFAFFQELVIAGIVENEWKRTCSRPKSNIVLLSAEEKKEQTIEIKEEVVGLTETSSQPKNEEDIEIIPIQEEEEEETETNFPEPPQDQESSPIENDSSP

B1: chimeric anti-CD20 monoclonal antibody c1K0924 (antibody, V domains shown)
VH: QVQLQQPGAELVKPGASVKMSCKASGYTFTSYNIHWVKQTPGQGLEWIGAIYPGNGDTSYNQKFKGKATLTSDKSSSTAYMQLSSLTSEDSAVYYCARMSTMITGFDYWGQGTTLTVSS
VL: QIVLSQSPAILSASPGEKVTMTCRASSSVSYMHWYQQRPGSSPKPWIYATSNLASGVPARFSGSGSGTSYYFTISRVEAEDAATYYCQQWNSNPPTHGGGTKLEIK
notes: Murine variable regions fused to human immunoglobulin H chain and L chain (kappa) constant regions of vector pNOW-Ab
B2: chimeric anti-CD20 monoclonal antibody c1K1736 (antibody, V domains shown)
VH: QVQLQQPGAELVKPGASVKMSCKASGYTFTTYNLHWVKQTPGQGLEWIGGIYPGNGDTSYNQKFKVKATLTADKSSNTAYMQLSSLTSEDSAVYYCARWIYYGNYEGTLDYWGQGTSVTVSS
VL: B1 VL with A13S, H33L, R38K, K44E, S64G, Y71S, F72L, N91T, S92F, H97F
notes: as for B1
B3: chimeric anti-CD20 monoclonal antibody c1K1402 (antibody, V domains shown)
VH: QVQLQQPGAELVKPGASVKMSCKASGFTFTSYNMHWVKQTPGQGLEWIGGIYPGNGDTSYNQKFKGKATLTADKSSSTAYMQLSSLTSEDSAVYYCARFYYYGSMGAMDYWGQGTSVTVSS
VL: B1 VL with R38K, Y71S, F72L, S75T, N91T, S92F, H97F, G99A, I105L
notes: as for B1
B4: chimeric anti-CD20 monoclonal antibody c1K1712 (antibody, V domains shown)
VH: QVQLQQPGAELVKPGASVKMSCKASGFTFTSYNLHWVKQTPGQGLEWIGAIYPGSGDTSYNQQFKGKATLTADKSSNTAYMQLNSLTSEDSAVYCCARSAMISTGNWYFDYWGQGTTLTVSS
VL: B1 VL with H33D, R38K, Y71S, F72L, A82T, N91T, S92F, H97F, G99S
notes: as for B1
B5: chimeric anti-CD20 monoclonal antibody c1K1228 (antibody, V domains shown)
VH: QVQLQQPGAELVKPGASVKVSCKASGFTFTSYNLHWVKQTPGQGLVWIGAIYPGNGDTSYNQKFRGKATLTADISSSTAYMQLSSLTSEDSAVYYCARYYYGYDAMDYWGQGTSVTVSS
VL: EIILTQSPTTMAASPGEKITITCSASSSISSYYLRWYQQKPGFSPKVLIYRTSNLASGVPARFSGSGSGTSYSLTIGTMEAEDVATYYCQQGNTVPLTFGSGTKLEIK
notes: as for B1
B6: chimeric anti-CD20 monoclonal antibody c1K1422 (antibody, V domains shown)
VH: QVQLQQPGAELVKPGASVKMSCRASGYTFTNYNMHWIKQTPGQGLEWIGAIYPGSGDTSYNRKFKGKATLTADTSSSTAYMQFSSLTSADSAVYYCARFTYYYGGTYGAMDYWGQGTSVTVSL
VL: QIVLTQSPPIMSASLGEEITLTCSASSRVSYMLWYQQKSGTSPKLLIYSTSNLASGVPSRFSGSGSGTFYSLTISSVEAEDAADYYCHQWTSNPCTFGGGTKLEIK
notes: as for B1

The target of one experiment is T1, human CD20 antigen. Put plainly: CD20/CHO cell-ELISA, antibody at 3 ng/ml. The text has this: (§1) The prepared 8 kinds of chimeric anti-CD20 monoclonal antibodies were examined for reactivity to the human CD20 antigen by the CD20/CHO cell-ELISA. Rituximab (c2B8) was used as a positive control. The values measured in the cell-ELISA (A492) reflect intensity of the binding property.
For orientation: In an ELISA, binding on a coated surface is turned into a signal by an enzyme label.
For B1, the A492 was 0.186 A492.

For B2, the A492 amounted to 0.32 A492.

Regarding B3, the A492 turned out to be 0.349 A492.

B4 gave an A492 of 0.359 A492.

Turning to B5, the A492 amounted to 0.289 A492.

B6 showed an A492 of 0.151 A492.

A further experiment addresses T1, human CD20 antigen. Kind of experiment: CD20/CHO cell-ELISA, antibody at 10 ng/ml.
Text: as §1
The molecule B1 displayed an A492 of 0.391 A492.

As to B2, the A492 was found to be 0.748 A492.

B3 showed an A492 of 0.737 A492.

Molecule B4 displayed an A492 of 0.793 A492.

Molecule B5 had an A492 of 0.701 A492.

Regarding B6, the A492 was found to be 0.357 A492.

The target of a further experiment is T1, human CD20 antigen. Kind of experiment: CD20/CHO cell-ELISA, antibody at 100 ng/ml.
Text: as §1
Consider B1, for which the A492 turned out to be 1.42 A492.

Molecule B2 came in with an A492 of 2.43 A492.

In turn, B3 came in with an A492 of 2.45 A492.

On to B4, for which the A492 turned out to be 2.29 A492.

In the case of B5, the A492 came out at 2.23 A492.

Turning to B6, the A492 amounted to 1.92 A492.

A further experiment has as its target T1, human CD20 antigen. Kind of experiment: CD20/CHO cell-ELISA, antibody at 1 ng/ml.
Text: as §1
Molecule B1 had an A492 of 0.094 A492.

The molecule B2 showed an A492 of 0.122 A492.

B3: the A492 worked out at 0.116 A492.

On to B4, for which the A492 was found to be 0.145 A492.

Turning to B5, the A492 came out at 0.12 A492.

Turning to B6, the A492 was 0.077 A492.

The target in another experiment is T1, human CD20 antigen. Kind of experiment: CD20/CHO cell-ELISA, antibody at 32 ng/ml.
Text: as §1
Molecule B1 had an A492 of 0.724 A492.

With B2, the A492 amounted to 1.55 A492.

B3 had an A492 of 1.62 A492.

Molecule B4 gave an A492 of 1.68 A492.

In turn, B5 came in with an A492 of 1.58 A492.

B6 gave an A492 of 0.912 A492.
